According to patent US20140050727A1 (MOCHIDA PHARMACEUTICAL, published 2014):
Positions count from the first letter of the chain named.

What was measured:
Test in all cases: competitive EIA on immobilized 356(CHO) with HRP-labeled F1024 antibody
[1] = molecular target: T1, amino acid-substituted soluble human CD14 Q295A (human, UniProt P08571 20-345)
T1 construct: mature; Expressed in COS-1, purified on a 3C10 column
T1 sequence (looked up): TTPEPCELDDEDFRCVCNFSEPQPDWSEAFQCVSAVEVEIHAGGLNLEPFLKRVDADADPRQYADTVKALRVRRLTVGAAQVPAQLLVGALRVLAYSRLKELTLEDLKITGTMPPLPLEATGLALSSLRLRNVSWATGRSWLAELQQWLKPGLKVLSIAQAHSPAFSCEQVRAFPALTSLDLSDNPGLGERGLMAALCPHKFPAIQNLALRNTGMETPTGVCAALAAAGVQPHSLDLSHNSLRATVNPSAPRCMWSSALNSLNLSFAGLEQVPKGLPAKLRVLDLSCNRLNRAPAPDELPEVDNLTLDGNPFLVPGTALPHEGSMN
Description: (§1) A competitive experiment was conducted by the following procedure to confirm the reactivity of each soluble human amino acid-substituted CD14 with the F1024 antibody. […] After allowing to stand overnight at 4° C. and washing 3 times with the PBS containing 0.05% Tween 20, 200 μL/well of PBS⁻ containing 2% StabilGuard (SurModics, Inc.) was added to the well, and the solution was incubated at 37° C. for 30 minutes and stored at 4° C. In the meanwhile, amino acid-substituted soluble human CD14 that had been purified in Example 6-3) was diluted to 2 to 0.02 μg/mL with PBS⁻ containing 0.1% BSA. HRP-labeled F1024 antibody was diluted to 2 μg/mL with PBS⁻ containing 0.1% BSA, and the diluted HRP-labeled F1024 antibody was mixed with an equal amount of the human amino acid-substituted CD14 (25 μL+25 μL). Next, the solution was discarded from the wells of the plate having the soluble CD14 immobilized, and 50 μL/well of a mixed solution of amino acid-substituted CD14 and HRP-labeled F1024 was added. After the incubation at 37° C. for 2 hours, the plate was washed 5 times with PBS⁻ containing 0.05% Tween 20, and 50 μL/well of TMB solution (BioFX) was added to the well as the chromogenic substrate. The reaction was allowed to proceed at room temperature for 5 minutes, the reaction was terminated by adding 50 μL/well of 1M hydrochloric acid solution. Absorbance at 450 nm was measured with a plate spectrophotometer.

[2] = molecular target: T2, amino acid-substituted soluble human CD14 P294/296A (human, UniProt P08571 20-345)
T2 construct: mature; Expressed in COS-1, purified on a 3C10 column
T2 sequence (looked up): T1 sequence (looked up) with P294A, A295Q, P296A
Description: as §1

[3] = molecular target: T3, amino acid-substituted soluble human CD14 P294H (human, UniProt P08571 20-345)
T3 construct: mature; Expressed in COS-1, purified on a 3C10 column
T3 sequence (looked up): T1 sequence (looked up) with P294H, A295Q
Description: as §1

Measured: binding result

B1: F1024 antibody (antibody, V domains shown)
VH: QIQLVQSGPELKKPGESVKISCKASGYTFTDYAMNWVKQAPGNGLKWMGWINTQTGKPTYADDFKQRFVFSLETSASTAYLQINNLNIEDTATYFCTRSTFYYSSYIYGWYFDFWGPGTSVTVSS
VL: DIVMTQSPTSISISVGERVTMNCKASQNVGSNVDWYQQKTGQSPKLLIYKASNRYTGVPDRFTGSGSGTDFTFTISNMQAVDLAVYYCMQSNTNPPWTFGGGTKLELKRT
notes: also called antibody F1024; F1024-1-3 rat antibody
no binding (tested: 2 to 0.02 µg/mL): all assays above
